Measured values reported in patent US20240002500A1 (GUANGDONG FAPON BIOPHARMA, published 2024).

Target: T1, hTIGIT-hFc (human, UniProt Q495A1 22-141)
T1 construct: also called antigen protein hTIGIT-hFc; human TIGIT recombinant protein carrying a human Fc tag; not shown: human Fc tag
T1 sequence (looked up): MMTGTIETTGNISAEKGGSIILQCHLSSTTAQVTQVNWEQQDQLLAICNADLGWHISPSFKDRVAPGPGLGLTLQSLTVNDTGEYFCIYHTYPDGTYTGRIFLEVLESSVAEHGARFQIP
Assay: FACS blocking: hTIGIT-hFc bound on CHO-hCD112 cells, then antibody, APC anti-human IgG Fc; blocked partner CD112; unit as printed on the x axis, Log(uM); the method's top concentration of 20 µg/mL and the nM values of Fig. 5B speak for nM
Method: The CHO-engineered cell CHO-hCD112 cells recombinantly expressing full-length human CD112 were counted; centrifugated at 300 g for 5 min; resuspended with an FCM buffer; and cell density was adjusted to 4E+06 cell/mL for later use. […] According to an experimental design, in each well, 50 μL of the antigen protein and 50 μL of the cell (the volume of each cell added into a 96-well V-shaped plate being 2E+05 cell/well) were respectively added in the 96-well V-shaped plate; and incubation was performed in dark on ice for 30 min. Centrifugation (300 g/5 min) was performed; supernatant was discarded; 200 μL of the FCM buffer was added for washing once; centrifugation (300 g/5 min) was performed; and the supernatant was discarded. The antibody was added to the 96-well V-shaped plate (in 100 μL/well); and incubation was performed in dark on ice for 30 min. Centrifugation (300 g/5 min) was performed; supernatant was discarded; 200 μL of the FCM buffer was added for washing once; centrifugation (300 g/5 min) was performed; and the supernatant was discarded. Secondary antibodies (APC anti-human IgG Fc, 1:500 dilution) were added to the 96-well V-shaped plate (in 100 μL/well); and incubation was performed in dark on ice for 30 min. […]

- IC50: 2.6 µM
B1: 14Tigit-1-1 mouse monoclonal antibody (antibody, V domains shown)
VH: DVQLQESGPGLVKPSQSLSLTCTVTGYSITSDYAWNWIRQFPGNKLEWMGYISYSGSTRSNPSLKSRISITRDTSKNQFFLQLNSMTAEDTATYYCGGWEVRNYYAMDYWGQGTSVTVSS
VL: DIVMTQSHKFMSTSVGDRVSITCKASQHVSTAVAWYQQKPGQSPKLLIYSASYRYTGVPDRFTGSGSGTDFTFTISSVQAEDLAVYYCQQHYNTPWTFGGGTKLEIKR
notes: Mouse monoclonal antibody from hybridoma
